This passage reports peptide exchange yield results from patent US20170165338A1.

First the molecules themselves.
B1: … (peptide)
peptide: PYRLIFEKF
B2: … (peptide)
peptide: NYYEVHKELF
B3: … (peptide)
peptide: VYQGHTALL
B4: … (peptide)
peptide: HYPPVQVLF
B5: … (peptide)
peptide: YFIDSTNLKTHF
B6: … (peptide)
peptide: LYITEPKTI

The assay concerns the target HLA-A*24 (human). Kind of assay: UV-exchange b2m ELISA. On the technique in general: An ELISA detects its analyte on a solid surface through an enzyme-linked reagent.
Take B1: the peptide exchange yield is 20 to 49%.

As for B2, the peptide exchange yield fell in the range of 50 to 75%.

The molecule B3 came in with a peptide exchange yield above 75%.

As to B4, the peptide exchange yield was in the range of 50 to 75%.

For B5, the peptide exchange yield was 50 to 75%.

With B6, the peptide exchange yield was 50 to 75%.
